Numbering of substitutions follows the chain as printed.
B1: CA9hu-2_HC1LC5 (antibody, V domains shown)
VH: EVQLVESGGGLVQPGGSLKLSCAASGFTFNTNAMHWVRQASGKGLEWVGRIRSKSNNYTTYYADSVKDRFTISRDDSKNTAYLQMNSLKTEDTAVYYCVCGSWFAYWGQGTLVTVSS
VL: DIVMTQSPDSLAVSLGERATINCKSSQSLLNSSNQKNYLAWYQQKPGQPPKLLIYFTSTRQSGVPDRFSGSGSGTDFTLTISSLQAEDVAVYYCQQHYSIPLTFGQGTKLEIK
notes: Humanized variant of IV/18; VH in-frame with human IgG constant domain (allotype G1m17,1), VL in-frame with human kappa constant domain (allotype Km3)
B2: CA9hu-2_HC3LC3 (antibody, V domains shown)
VH: QVQLVESGGGVVQPGGSLRLSCAASGFTFNTNAMHWVRQAPGRGLEWVARIRSKSNNYTTYYADSVKDRFTISRDNSKNTLYLQVNSLRAEDTAVYYCVCGSWFAYWGQGTLVTVSS
VL: B1 VL with V3Q, Y93F, L110V
notes: as for B1
B3: CA9hu-2_HC4LC2 (antibody, V domains shown)
VH: B2 VH with Q1E, G16R, R43K, V85M
VL: B1 VL with Y42F, K51N, L53V, S82N, Y93F, K109Q, L110V
notes: as for B1
B4: CA9hu-2_HC3LC2 (antibody, V domains shown)
VH: B2 VH
VL: B1 VL with Y42F, K51N, L53V, S82N, Y93F, K109Q, L110V
notes: as for B1
B5: CA9hu-2_HC3LC4 (antibody, V domains shown)
VH: B2 VH
VL: B1 VL with Y42F, L52V, S69T
notes: as for B1
B6: CA9hu-2_HC3LC1 (antibody, V domains shown)
VH: B2 VH
VL: B1 VL with I2V, A19V, P49S
notes: as for B1
B7: CA9hu-2_HC5LC1 (antibody, V domains shown)
VH: B1 VH with L112T
VL: B1 VL with I2V, A19V, P49S
notes: as for B1
B8: CA9hu-2_HC5LC4 (antibody, V domains shown)
VH: B1 VH with L112T
VL: B1 VL with Y42F, L52V, S69T
notes: as for B1
B9: CA9hu-2_HC4LC1 (antibody, V domains shown)
VH: B2 VH with Q1E, G16R, R43K, V85M
VL: B1 VL with I2V, A19V, P49S
notes: as for B1
B10: CA9hu-2_HC2LC4 (antibody, V domains shown)
VH: B1 VH with N79S
VL: B1 VL with Y42F, L52V, S69T
notes: as for B1
B11: CA9hu-2_HC2LC2 (antibody, V domains shown)
VH: B1 VH with N79S
VL: B1 VL with Y42F, K51N, L53V, S82N, Y93F, K109Q, L110V
notes: as for B1
B12: CA9hu-2_HC1LC3 (antibody, V domains shown)
VH: B1 VH
VL: B1 VL with V3Q, Y93F, L110V
notes: as for B1
B13: CA9hu-2_HC2LC1 (antibody, V domains shown)
VH: B1 VH with N79S
VL: B1 VL with I2V, A19V, P49S
notes: as for B1
B14: CA9hu-2_HC2LC5 (antibody, V domains shown)
VH: B1 VH with N79S
VL: B1 VL
notes: as for B1
B15: CA9hu-2_HC4LC3 (antibody, V domains shown)
VH: B2 VH with Q1E, G16R, R43K, V85M
VL: B1 VL with V3Q, Y93F, L110V
notes: as for B1
B16: CA9hu-2_HC1LC2 (antibody, V domains shown)
VH: B1 VH
VL: B1 VL with Y42F, K51N, L53V, S82N, Y93F, K109Q, L110V
notes: as for B1
B17: CA9hu-2_HC5LC3 (antibody, V domains shown)
VH: B1 VH with L112T
VL: B1 VL with V3Q, Y93F, L110V
notes: as for B1
B18: CA9hu-2_HC5LC5 (antibody, V domains shown)
VH: B1 VH with L112T
VL: B1 VL
notes: as for B1
B19: CA9hu-2_HC1LC4 (antibody, V domains shown)
VH: B1 VH
VL: B1 VL with Y42F, L52V, S69T
notes: as for B1
B20: CA9hu-2_HC5LC2 (antibody, V domains shown)
VH: B1 VH with L112T
VL: B1 VL with Y42F, K51N, L53V, S82N, Y93F, K109Q, L110V
notes: as for B1
B21: CA9hu-2_HC2LC3 (antibody, V domains shown)
VH: B1 VH with N79S
VL: B1 VL with V3Q, Y93F, L110V
notes: as for B1
B22: CA9hu-2_HC4LC4 (antibody, V domains shown)
VH: B2 VH with Q1E, G16R, R43K, V85M
VL: B1 VL with Y42F, L52V, S69T
notes: as for B1
B23: CA9hu-2_HC3LC5 (antibody, V domains shown)
VH: B2 VH
VL: B1 VL
notes: as for B1
B24: CA9hu-2_HC1LC1 (antibody, V domains shown)
VH: B1 VH
VL: B1 VL with I2V, A19V, P49S
notes: as for B1

Molecular target: CA IX-positive antigen (protein extract of C-33a_CA IX cells) (human, UniProt Q16790 38-459)
Assay: ELISA, antibody 5 ug/ml on coated protein extract of C-33a_CA IX cells versus C-33a_neo
Procedure: To evaluate the antigen-binding specificity, all twenty-five humanized variants of CA9hu-2 were subjected to enzyme-linked immunosorbent assay (ELISA) using either CA IX-positive or CA IX-negative antigen. Antigens were prepared from stably transfected C-33a cell line expressing CA IX (C-33a_CA IX) and parental mock-transfected C-33a cells without CA IX expression (C-33a_neo).
Proteins were extracted from the cell monolayer with RIPA lysis buffer (0.1% deoxycholate, 1% Triton X-100 and protease inhibitor cocktail in PBS). Protein concentrations were determined by bicinchoninic acid assay (ThermoFisher Scientific, Waltham, Mass. USA) according to the manufacturer's instructions. Protein extracts were diluted to final concentration 0.2 mg/ml in PBS. Protein concentration of antigen samples used in screening of antigen-antibody specific interaction tested by ELISA meets the requirements for low detergent content that could otherwise interfere throughout the analysis. 50 μl of either CA IX-positive or CA IX-negative antigen was coated on the surface of microplate wells overnight at 37° C. After washing with PBS-T 0.05% Tween-20 in PBS pH7.2, 50 μl of all humanized variants of CA9hu-2 (diluted to concentration 5 μg/ml in 10% FCS in PBS-T) were added and incubated for 2 h at room temperature. Peroxidase-labeled swine anti-human IgG (diluted 1:5000 in 10% FCS in PBS-T; Sigma-Aldrich, St. Louis, Mo. USA) was used as detector. Parental IV/18 antibody (marked as “mouse Ab”) as well as chimeric HC0LC0 antibody (having the murine variable domains and the human Ig constant domains) were used as reference samples. Results are expressed as a fold of induction and are calculated as O.D. values of absorbance measured at 492 nm from CA IX-positive antigen/O.D. values of absorbance measured at 492 nm from CA IX-negative antigen.

Row | Binder | binding result
1 | B1 | binds
2 | B2 | binds
3 | B3 | binds
4 | B4 | binds
5 | B5 | binds
6 | B6 | binds
7 | B7 | binds
8 | B8 | binds
9 | B9 | binds
10 | B10 | binds
11 | B11 | binds
12 | B12 | binds
13 | B13 | binds
14 | B14 | binds
15 | B15 | binds
16 | B16 | binds
17 | B17 | binds
18 | B18 | binds
19 | B19 | binds
20 | B20 | binds
21 | B21 | binds
22 | B22 | binds
23 | B23 | binds
24 | B24 | binds
